Tests used:
Experiment in all cases: purified protein
Format in all cases: biochemical, Pseudomonas putida
[1] = tested on: T1, CC(O)(CC(=O)C(=O)O)C(=O)O; settings: without Pi, 1 mM MgCl2, 0.1 M HEPES pH 8.0, 25 °C, racemic substrate
T1 construct: recombinant from pT7-7, expressed in E. coli; chelex-treated apo-enzyme reconstituted with MgCl2

[2] = tested on: T2, O=C(O)CC(O)(CC(=O)C(=O)O)C(=O)O; settings: without Pi, 1 mM MgCl2, 0.1 M HEPES pH 8.0, 25 °C, racemic substrate
T2 construct: recombinant from pT7-7, expressed in E. coli; chelex-treated apo-enzyme reconstituted with MgCl2

O=C(O)CC(=O)C(=O)O = tested on: T3, O=C(O)CC(=O)C(=O)O; settings: without Pi, 1 mM MgCl2, 0.1 M HEPES pH 8.0, 25 °C
T3 construct: recombinant from pT7-7, expressed in E. coli; chelex-treated apo-enzyme reconstituted with MgCl2

Substance	Km [1] [µM]	kcat [1] [s⁻¹]	kcat/Km [1] [M⁻¹ s⁻¹]	Km [2] [µM]	kcat [2] [s⁻¹]	kcat/Km [2] [M⁻¹ s⁻¹]	Km (O=C(O)CC(=O)C(=O)O) [µM]	kcat (O=C(O)CC(=O)C(=O)O) [s⁻¹]	kcat/Km (O=C(O)CC(=O)C(=O)O) [M⁻¹ s⁻¹]
HMG/CHA aldolase (Pseudomonas putida F1; H75A)	389 ± 22	22.3 ± 0.75	57300 ± 3800	–	–	–	–	–	–
HMG/CHA aldolase (Pseudomonas putida F1; T145A)	1080 ± 88	0.889 ± 0.057	823 ± 85	–	–	–	–	–	–
HMG/CHA aldolase (Pseudomonas putida F1; R123K)	3210 ± 210	0.086 ± 0.0046	26.7 ± 2.3	–	–	–	–	–	–
HMG/CHA aldolase (Pseudomonas putida F1; K147A)	2010 ± 210	0.014 ± 0.00039	6.97 ± 0.75	–	–	–	–	–	–
HMG/CHA aldolase (Pseudomonas putida F1; G144V)	1390 ± 160	0.215 ± 0.015	155 ± 21	–	–	–	–	–	–
HMG/CHA aldolase (Pseudomonas putida F1; R195A)	1370 ± 58	6.72 ± 0.19	4910 ± 250	–	–	–	–	–	–
HMG/CHA aldolase (Pseudomonas putida F1; R40A)	304 ± 27	6.7 ± 0.14	22000 ± 2100	–	–	–	–	–	–
HMG/CHA aldolase (Pseudomonas putida F1; N71A)	796 ± 70	0.014 ± 0.0011	17.6 ± 2.1	–	–	–	–	–	–
HMG/CHA aldolase (Pseudomonas putida F1)	188 ± 11	15.6 ± 0.54	83000 ± 5600	15.0 ± 1.3	13.4 ± 0.31	893000 ± 80000	298 ± 30	1.86 ± 0.18	6240 ± 870
